This note sets out measurements from patent US20250346643A1, “TROPOMYOSIN KINASE RECEPTOR (TRK) LIGANDS AS THERAPEUTICS TO SUPPORT LIVER REGENERATION” (Vanderbilt University, priority 2024, published 2025).

The data set in a line: Storage stability of solubilized recombinant NTF3 at -80 C. It is filed as physicochemical. Particulars: solubilized in 0.1% BSA/PBS, stored at -80 C. The protocol:
Treatment with recombinant NTF3. Four months old mice were injected via tail vein for 4 consecutive days with recombinant NTF3 (STEMCELL technology, Vancouver, Canada; cat. 78074, lots 1000070683, 1000077434) diluted in sterile 0.9% saline (0.9% NaCl) or vehicle only. Mice were weighed daily and recombinant NTF3 given at 20 ng/g body weight or 100 ng/g body weight, respectively. Lyophilized NTF3 was solubilized in 0.1% BSA/PBS (bovine serum albumin, Sigma-Aldrich, St. Louis, MO; A3059) and stored at −80° C. until use.
Human HepG2 and mouse AML12 cells were grown in 6-well plates. Cells were treated with NTF3 (20 ng/ml) purchased from STEMCELL technologies, Vancouver, Canada (cat. 78074), R&D Systems, Minneapolis, MN (267-N3), Gibco, Waltham, MA (PHC7036) and/or Loxo-195 (5-10 nM) (Selleckchem, Houston, TX; S8636) in complete growth media without L-glutamine for 2 hours. Lyophilized NTF3 was solubilized with sterile filtered PBS supplemented with 0.1% BSA, aliquoted and stored at −80° C. until use. […] Protein concentration of supernatants were determined by Direct Detect Spectrophotometer (MilliporeSigma, Burlington, MA). […]
Immunoblotting. […] Protein concentration of supernatants was determined by Direct Detect Spectrophotometer (MilliporeSigma, Burlington, MA). […] The protein concentration of supernatants was determined by a Direct Detect® spectrophotometer (MilliporeSigma, Burlington, MA). […]

Regarding “NTF3: neurotrophin-3, recombinant protein; HSC-derived hepatocyte mitogen, ligand of TRKA, TRKB, TRKC”, the “storage time at which activity and protein concentration declined significantly” value is recorded as “approximately 3 months”.
